Data set [1] can be described thus: Continuous spectrophotometric PYO demethylation assay (specific activity and kinetics of PodA). It counts as biochemical. The procedure: Specific activity and kinetics of PodA. To determine specific activity and kinetic parameters of PodA for PYO, a continuous spectrophotometric assay monitoring the absorbance of PYO (690 nm) was utilized. Briefly, assays were performed at 25° C. in 100 μL reaction volumes in 96-well plates and reactions were monitored at 690 nm over 10 min. Reaction mixtures contained Phosphate buffer (50 mM, pH 6.0), ethylene glycol (1%, v/v), protein (3 μM) and substrate (for specific activity, 100 μM, for kinetics, varying). Data were acquired using the SpectraMax® M3 Microplate Reader (Molecular Devices) using the Soft Max Pro software every 10 s over 10 min. Path lengths for each well were calculated using Soft Max Pro endpoint readings and slopes were corrected for path lengths of 1 cm.
Specific activity was calculated from the slope of the linear range of (ΔOD690 min^−1) using Beer's Law (A=εcl) with a path length of 1 cm and the molar extinction coefficient of PYO (4,130 M^−1 cm^−1). Equation was solved for c, giving specific activity in nmol min^−1 mg^−1 of PodA. For kinetic parameters, graphs of initial velocity (μM s^−1) versus substrate concentration (μM) were plotted using Prism v8 (GraphPad). The Michaelis-Menten kinetics model was used to determine Km and Vmax. The turnover number (kcat) was determined using the following equation: Vmax=kcat[E], where [E] was the concentration of PodA added. All spectrophotometric assays mentioned above were completed thrice, each in technical triplicate with a representative data set shown. Error bars represent standard deviation as calculated by Prism v8 (GraphPad). Standard deviation for kcat and Kcat KM^−1 was calculated using standard formulas for propagation of error.

Data set [2] can be described thus: Protein yield of PodA variants purified from inclusion bodies of overexpression culture. The method, then: Protein overproduction and purification of soluble and inclusion body fractions. Plasmids coding for proteins of interest were transformed into E. coli BL21 […]. […]. Cultures were grown at 37° C. with shaking to an optical density of 0.4 (OD600 nm) and plasmid expression was induced with IPTG (50 μM) and shaken overnight at 16° C. Cells were harvested by centrifugation at 5,000×g for 10 min in a Beckman Coulter Avanti J-20 XOI refrigerated centrifuge using a JLA-8.1000 rotor at 4° C. Cell pellets were stored at −80° C. until used.
For purification of PodA from inclusion bodies, the pellets remaining following lysis and centrifugation at 40,000×g were resuspended in 20 mL of detergent buffer [50 mM HEPES (pH 7.5) and 1% Triton-X (v/v)] using a Bio-gen PRO200 cell homogenizer (PRO Scientific). Sample was spun for 15 min at 40,000×g at 4° C. in a Beckman Coulter Avanti centrifuge with a JA-25.50 rotor. Supernatant was discarded and the remaining cell pellet was resuspended in 5 mL of buffer [50 mM HEPES (pH 7.5), 500 mM NaCl] using a cell homogenizer, supplemented with lysozyme (200 μg mL^−1), and incubated for 10 min. Volume was increased to 20 mL with HEPES (50 mM, pH 7) and sample was spun for 40,000×g at 4° C. for 15 min. Supernatant was discarded and pellet was homogenized in 10 mL of denaturing buffer 50 mM HEPES (pH 7.5), 500 mM NaCl, and 8M urea) and incubating rocking overnight. The sample was spun at for 40,000×g at 25° C. for 30 min and supernatant was incubated with 1 mL HisPur Ni-NTA resin (Thermo Fisher Scientific) on a rocking platform for 10 min. Beads were allowed to settle without shaking, supernatant was discarded, and resin was pipetted into glass gravity columns. Resin was washed with 15 mL of denaturing buffer, followed by an elution with denaturing buffer supplemented with imidazole (500 mM). Fractions were analyzed by SDS-PAGE and those containing protein were combined into SnakeSkin 3.5 K MWCO dialysis tubing (Thermo Fisher Scientific). Urea was slowly dialyzed out in HEPES (50 mM, pH 7.5) and NaCl (500 mM) by lowing urea concentrations by 1 M increments. Each step was dialyzed at RT for 30 min. Protein was dialyzed in HEPES (50 mM, pH 7.5), NaCl (500 mM), and imidazole (20 mM) overnight at 4° C. The following day, protein was cleaved for 3 h at 25° C. with TEV protease (1:50 mg:mg ratio of TEV to PodA). The sample was applied to a HisPur gravity column and cleaved protein in the flow thru was confirmed by SDS-PAGE. Cleaved PodA protein was then dialyzed for storage for 3 h at 4° C. in HEPES (50 mM pH 7.5), NaCl (250 mM) and finally in HEPES (50 mM, pH 7.5), NaCl (100 mM), and glycerol (20%, v/v). Protein concentration was established on a NanoDrop™ using the extinction coefficient and MW of each protein. Protein was drop frozen in LN2 and stored at −80° C. until use.

A further data set relates to Pseudomonas aeruginosa. In words: Crystal violet biofilm assay. In kind it is cell-based. The settings on record: 24 h incubation, protein added from the beginning. The procedure: Crystal violet assay. Pseudomonas aeruginosa grown overnight in LB were inoculated (1.5%, v/v) and grown for 24 h at 37° C. in 96-well round bottom plates in minimal medium (100 μL) with arginine (40 mM) as the sole carbon source. PodA was added with cells simultaneously and was present during growth and biofilm development. Planktonic cells were removed and attached cells were quantified with crystal violet staining (125 μL. 0.1% w/v), followed by washes with water and de-staining with an acetic acid (30%, v/v) mixture in water. Crystal violet was measured using a SpectraMax® M3 Microplate Reader (Molecular Devices) at an absorbance of 550 nm. Details of procedure were published previously (28)[43].

Data set [3] relates to Pseudomonas aeruginosa aggregate biofilms. The conditions noted are these: previous experiments, succinate-minimal medium, 27 hours; cited from earlier work.
[4] abbreviates: pH 6, 1% ethylene glycol, PodA 3 μM, substrate PYO.

The Km is the concentration of substrate that gives half-maximal velocity. The term kcat denotes the number of substrate molecules converted per active site and unit of time at saturation.

B1: WT PodA41-162: Truncated wild-type pyocyanin demethylase from Mycobacterium fortuitum (MFORT_14352) lacking N-terminal membrane helix, SEQ ID NO: 3 (protein)
chain: VTMTLDVKNDQVAKHDFGKPGMDVGDMDIFSDILSVDGKQVGYDGGACFFTNVTPDNPMTYCELTIHLDAGEIFARSLTPHTLAPFTMAITGGTGEYANSKGELTVSGVATPDEKYELKLTK
Take B1: the “pH of optimal activity” value in data set [1] (buffers pH 5.5-10.0, PodA 3 μM, PYO 100 μM) was 6. In addition, the “Effect of salts (NaCl and KCl) on activity” value in data set [1] (cystic fibrosis sputum range, 66 mM Na+, 15 mM K+) is recorded as “did not inhibit or enhance”. In data set [1] (setting [4]), the Km was determined as 372 µM, the catalytic efficiency is 4.74±0.24×10^2 M^−1 s^−1 and the kcat stood at 0.176 ± 0.003 s⁻¹. Moreover, the “Effect of slight increase in viscosity (ethylene glycol or glycerol 1% v/v) on activity” value in data set [1] (pH 6, PodA 3 μM, PYO 100 μM) is reported as “enhanced”. The catalytic efficiency in data set [1] (protein from soluble fraction) is 1.05±0.093×10^2 M^−1 s^−1. For the same molecule, the catalytic efficiency in data set [1] (protein purified from inclusion bodies, denatured and refolded) was 1.14±0.25×10^2 M^−1 s^−1. In data set [2] (per L of bacterial culture, typical), this molecule had a protein yields of about 0.3 mg/L. Further, the Yield in data set [2] (purified from inclusion bodies, per L of E. coli overexpression culture) amounted to 0.33 mg/L^−1. The “biofilm attachment (crystal violet)” value in the data set on Pseudomonas aeruginosa is “biofilm attachment defect”. For the same molecule, the “aggregate development in ABBA” value in data set [3] was “smaller aggregates in anoxic regions of the agar”.

The values are drawn from patent US12427188B2, “Pyocyanine demethylases and related phenazine degrading agents compositions, methods and systems for interfering with viability of bacteria” (priority 2020, dated 2025).
